According to patent publication US20230392122A1, “LONG-TERM AND FUNCTIONAL CULTURE OF HEPATIC ORGANOIDS (eHEPO) DERIVED FROM EPCAM+ ENDODERMAL PROGENITOR CELLS DIFFERENTIATED FROM INDUCED PLURIPOTENT STEM CELLS” (DOKUZ EYLUL UNIVERSITESI REKTORLUGU, priority 2020, published 2023):
“Also recorded” adds a separate entry of the source.

Test system: IPSC-derived endoderm cells
Assay: Endoderm differentiation of IPSCs with R-spo1 added, flow cytometry for EpCAM
Type: cell-based, human
Conditions: 5 ng/ml R-spo1 added to endoderm medium
Experimental: To start with, IPSCs were differentiated into definitive endoderms in a medium containing 100 ng/mL Activin A, 50 ng/mL Wnt3a, and 5 ng/mL R-spo1factors for 5 days (FIG. 1A). During the definitive endoderm development stage, the parenchymal cells of the liver derive from a specific germ layer. […] In particular, it is evident that following independent differentiations, the percentage of CXCR4+/EpCAM+ endodermal cells derived from three independent IPSC lines (WT1, WT2 and WT3) is not too different from one another, and that the endodermal induction step of the protocol can be repeated (FIG. 1B). At this point of the assay, the differentiation medium was modified to obtain more EpCAM+ endoderm cells. Wnt signalling pathway agonist and 5 ng/ml R-spo1, which is known to play a significant role in stem cell growth, were added to the endoderm medium. […] As a result, this protocol enables IPSCs to differentiate into more EpCAM+endoderm cells in two-dimensional mediums.

B1: R-spo1: Wnt signalling pathway agonist known to play a significant role in stem cell growth, added to the endoderm medium (protein, UniProt Q2MKA7 21-263, looked up)
R-spondin-1: SRGIKGKRQRRISAEGSQACAKGCELCSEVNGCLKCSPKLFILLERNDIRQVGVCLPSCPPGYFDARNPDMNKCIKCKIEHCEACFSHNFCTKCKEGLYLHKGRCYPACPEGSSAANGTMECSSPAQCEMSEWSPWGPCSKKQQLCGFRRGSEERTRRVLHAPVGDHAACSDTKETRRCTVRRVPCPEGQKRRKGGQGRRENANRNLARKESKEAGAGSRRRKGQQQQQQQGTVGPLTSAGPA
DIC images
  morphology of the cells: not affected negatively
Flow cytometry, three healthy IPSCs
  EpCAM ratio / number of EpCAM (+) cells: causes an increase in the number of EpCAM (+) cells; also recorded: increases the EpCAM ratio considerably
